PMC9203827

Molecular target: papain (UniProt P00784)
Sequence of UniProt P00784 (P00784 134-345): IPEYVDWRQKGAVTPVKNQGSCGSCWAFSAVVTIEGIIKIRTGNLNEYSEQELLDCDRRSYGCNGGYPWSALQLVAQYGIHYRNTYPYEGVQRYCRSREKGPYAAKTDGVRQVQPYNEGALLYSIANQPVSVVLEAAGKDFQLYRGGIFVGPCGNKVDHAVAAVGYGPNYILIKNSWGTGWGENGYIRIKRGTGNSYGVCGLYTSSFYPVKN

inhibition of papain proteolytic activity on azocasein (absorbance); rCYST-B 0-80 μg (text: μg/μL) pre-incubated with 10 μL papain (0.1 μg/μL) at 28°C for 30 min; inhibition rises from 30 μg/μL: 100%
Substance: recombinant cystatin-B from the red piranha Pygocentrus nattereri (natural protein)
